Assays:
Experiment in all cases: radioligand binding
[1] = target: Ng-CAM (chicken) (chicken) (UniProt Q03696)
[2] = target: Ng-CAM and N-CAM (physiological salt)
[3] = target: laminin

Sequence of neurocan (P55067 23-1257): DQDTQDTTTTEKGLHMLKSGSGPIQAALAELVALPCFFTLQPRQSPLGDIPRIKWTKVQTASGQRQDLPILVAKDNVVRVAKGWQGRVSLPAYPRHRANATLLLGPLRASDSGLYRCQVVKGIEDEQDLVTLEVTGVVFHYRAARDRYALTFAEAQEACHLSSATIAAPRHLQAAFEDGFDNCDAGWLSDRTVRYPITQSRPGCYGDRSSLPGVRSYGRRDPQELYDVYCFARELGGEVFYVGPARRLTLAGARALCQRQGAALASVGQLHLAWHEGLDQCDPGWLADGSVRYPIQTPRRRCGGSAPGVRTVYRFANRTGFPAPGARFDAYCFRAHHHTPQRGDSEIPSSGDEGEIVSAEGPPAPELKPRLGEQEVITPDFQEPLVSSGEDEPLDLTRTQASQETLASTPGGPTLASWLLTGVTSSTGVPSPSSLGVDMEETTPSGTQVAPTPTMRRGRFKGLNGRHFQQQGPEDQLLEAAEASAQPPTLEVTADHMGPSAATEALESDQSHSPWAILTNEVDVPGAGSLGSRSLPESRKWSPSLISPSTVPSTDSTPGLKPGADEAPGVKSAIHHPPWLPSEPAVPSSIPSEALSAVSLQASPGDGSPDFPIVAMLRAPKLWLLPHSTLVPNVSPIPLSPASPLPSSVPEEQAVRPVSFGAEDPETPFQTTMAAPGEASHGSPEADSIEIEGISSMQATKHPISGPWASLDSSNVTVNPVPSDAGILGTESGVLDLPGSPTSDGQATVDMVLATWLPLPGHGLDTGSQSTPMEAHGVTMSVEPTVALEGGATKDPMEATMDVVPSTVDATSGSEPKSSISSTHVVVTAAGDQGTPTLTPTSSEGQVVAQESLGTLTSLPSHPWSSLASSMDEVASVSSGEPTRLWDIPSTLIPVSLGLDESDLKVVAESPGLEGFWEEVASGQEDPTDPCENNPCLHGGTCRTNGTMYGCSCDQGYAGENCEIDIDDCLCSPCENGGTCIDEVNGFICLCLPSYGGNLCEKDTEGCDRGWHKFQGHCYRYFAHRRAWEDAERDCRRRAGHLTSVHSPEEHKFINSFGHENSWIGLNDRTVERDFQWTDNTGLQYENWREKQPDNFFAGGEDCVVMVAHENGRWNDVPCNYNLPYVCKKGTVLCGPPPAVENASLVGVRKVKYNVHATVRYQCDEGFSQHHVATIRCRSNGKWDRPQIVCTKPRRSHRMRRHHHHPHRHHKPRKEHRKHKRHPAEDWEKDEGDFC
Sequence of Ng-CAM (chicken) (chicken) (Q03696 21-1266): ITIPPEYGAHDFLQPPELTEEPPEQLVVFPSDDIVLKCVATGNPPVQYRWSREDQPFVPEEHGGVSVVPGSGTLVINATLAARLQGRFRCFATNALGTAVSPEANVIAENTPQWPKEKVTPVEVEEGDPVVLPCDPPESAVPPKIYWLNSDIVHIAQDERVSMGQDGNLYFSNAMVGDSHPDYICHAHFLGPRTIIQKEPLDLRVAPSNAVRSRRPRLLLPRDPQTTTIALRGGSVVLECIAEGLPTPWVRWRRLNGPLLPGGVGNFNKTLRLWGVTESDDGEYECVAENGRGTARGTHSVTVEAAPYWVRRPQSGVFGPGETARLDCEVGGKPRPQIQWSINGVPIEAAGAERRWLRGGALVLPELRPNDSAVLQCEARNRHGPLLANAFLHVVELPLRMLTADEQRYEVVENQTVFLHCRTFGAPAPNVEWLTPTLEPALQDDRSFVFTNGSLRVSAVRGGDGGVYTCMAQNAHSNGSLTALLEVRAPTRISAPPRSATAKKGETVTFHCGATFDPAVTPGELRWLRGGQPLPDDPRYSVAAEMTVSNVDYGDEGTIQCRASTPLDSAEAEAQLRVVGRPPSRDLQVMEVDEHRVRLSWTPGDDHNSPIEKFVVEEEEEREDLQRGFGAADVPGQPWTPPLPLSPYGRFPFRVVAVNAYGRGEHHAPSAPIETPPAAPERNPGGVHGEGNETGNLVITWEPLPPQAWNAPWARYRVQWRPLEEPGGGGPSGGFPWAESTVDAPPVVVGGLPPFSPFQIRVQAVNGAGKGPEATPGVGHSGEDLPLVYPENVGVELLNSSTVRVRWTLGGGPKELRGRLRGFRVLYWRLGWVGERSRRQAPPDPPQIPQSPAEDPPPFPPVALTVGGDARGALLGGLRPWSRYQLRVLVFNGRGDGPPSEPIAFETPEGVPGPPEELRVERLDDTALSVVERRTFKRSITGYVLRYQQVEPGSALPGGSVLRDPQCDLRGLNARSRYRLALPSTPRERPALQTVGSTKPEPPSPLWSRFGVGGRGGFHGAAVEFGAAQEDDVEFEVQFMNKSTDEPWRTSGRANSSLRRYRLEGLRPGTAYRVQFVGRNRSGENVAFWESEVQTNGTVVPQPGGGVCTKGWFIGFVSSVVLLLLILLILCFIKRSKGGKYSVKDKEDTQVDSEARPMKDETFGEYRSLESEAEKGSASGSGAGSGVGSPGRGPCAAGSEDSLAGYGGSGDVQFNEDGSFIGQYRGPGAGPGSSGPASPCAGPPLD

Kd [1] | t1/2 of dissociation in excess buffer [1] | percent decrease of binding in isotonic against hypotonic buffer [2] | percent of total counts bound [3] | Substance
5.3 nM | 4 h |  |  | neurocan-C (domain or fragment)
 |  | 35 to 60% | 9% | neurocan (from UniProt P55067 23-1257) (natural protein)
